# Source: CN113372440A (SUN YAT SEN UNIV CANCER CENTER SUN YAT SEN UNIV AFFILIATED …, dated 2021)
# Read-outs that look alike come from different tables or passages of the source.
# B1: 单克隆抗体6H2 (anti-EBV gLgH mouse monoclonal antibody 6H2) (antibody, V domains shown)
# VH: EVKLLESGGGLVQPGGSLKLSCAASGFDFSRYWMTWVRQAPGQGLEWIGEINPDSSTINYTPSLKDKFIISRDNAKNTLYLQVSKLRSEDTALYYCARSPYYYGSSYDVWGAGTAVTVSS
# VL: DIVMSQSPSSLAVSAGEKVTMNCKSSQSLLNSRTRKNYLAWYQQKPGQSPKLLIYWASTRESGVPDRFTGSGSGTDFTLTISSVQAEDLAFYYCKQSYNLPTFGGGTKLEIK
# notes: also called 单抗6H2; 中和抗体6H2
# B2: 嵌合单抗C6H2 (mouse 6H2 variable regions on human IgG1/kappa constant regions) (antibody, V domains shown)
# VH: B1 VH
# VL: DIVMSQSPSSLAVSAGEKVTMNCKSSQSLLNSRTRKNYLAWYQQKPGQSPKLLIYWASTRESGVPDRFTGSGSGTDFTLTISSVQAEDLAFYYCKQSYNLPTFGGGTKLEIKR
# notes: also called 嵌合抗体C6H2
# Experiments:
# [1] = biological target: T1, gLgH蛋白 (recombinant single-chain EBV M81 gL ectodomain - linker - gH ectodomain - 6xHis) (Epstein-Barr virus (M81 strain, …))
# [2] = biological target: gH/gL glycoprotein on EBV virions produced by AKATA cells (Epstein-Barr virus, UniProt P03231 19-706; P03212 23-137); assay: cell-based or functional assay
# [3] = biological target: T1, gLgH蛋白 (recombinant single-chain EBV …); assay: ELISA, gLgH coated at 2 μg/mL, antibody titrated from 1 μg/mL, HRP goat anti-mouse IgG (Fig. 1)
# [4] = biological target: T1, gLgH蛋白 (recombinant single-chain EBV …); assay: ELISA by the method of Example 1 step 5, gLgH coated (Fig. 8)
# [5] = biological target: T1, gLgH蛋白 (recombinant single-chain EBV …); assay: SPR by the method of Example 4 (Biacore 8K, Protein A capture, gLgH as analyte) (Fig. 9)
Binder,Kd [1] [nM],"IC50 in the epithelial cell infection model (HNE1 cells, GFP-EBV, inhibition of GFP-positive cells) [2] [µg/mL]",EC50 [3] [µg/mL],EC50 [4] [µg/mL],Kd [5] [nM]
B1,2.8,0.108,0.0134,–,–
B2,–,–,–,0.0266,11.5
